Reference: US20210032312A1 (Janssen / Centocor, published 2021)
Substitutions are numbered along the chain they refer to.

B1: P282AR9P1356_A10 (designed binder)
chain: LPAPKNLVVSRVTEDSARLSWHTATNSFDSFLIQYQESEKVGEAIVLTVPGSERSYDLTGLKPGTEYTVSIYGVDVDYNPTGRPVSSNPLSAIFTT
notes: FN3 domain
B2: P283AR9P1362_G3 (designed binder)
chain: LPAPKNLVVSRVTEDSARLSWVKRATSFDSFLIQYQESEKVGEAIVLTVPGSERSYDLTGLKPGTEYTVSIYGVDVKWEGNRPVASNPLSAIFTT
notes: FN3 domain
B3: P282AR9P1356_A4 (designed binder)
chain: B2 chain with A25P, T26N, K77V, W78D, E79Y, G80E, N81G, V84R, A85W
notes: FN3 domain
B4: P282AR9P1356_A6 (designed binder)
chain: LPAPKNLVVSRVTEDSARLSWSKTDSSFDSFLIQYQESEKVGEAIVLTVPGSERSYDLTGLKPGTEYTVSIYGVDVVYIEGNPVFSNPLSAIFTT
notes: FN3 domain
B5: P283AR9P1362_C7 (designed binder)
chain: B2 chain with K77R, W78Y, E79N, G80E, N81G, R82Q, V84I, A85W
notes: FN3 domain
B6: P283AR9P1362_F8 (designed binder)
chain: B2 chain with V22G, K23Y, R24Y, A25H, T26G, S27H
notes: FN3 domain
B7: P282AR9P1356_B9 (designed binder)
chain: LPAPKNLVVSRVTEDSARLSWPEGDRPFFDSFLIQYQESEKVGEAIVLTVPGSERSYDLTGLKPGTEYTVSIYGVDVKWEGNRPVASNPLSAIFTT
notes: FN3 domain
B8: P282AR9P1356_D3 (designed binder)
chain: LPAPKNLVVSRVTEDSARLSWTRHETSFDSFLIQYRESEKVGEAIVLTVPGSERSYDLTGLKPGTEYTVSIYGVVVEYDAAGNPKYSNPLSAIFTT
notes: FN3 domain
B9: P282AR9P1356_H1 (designed binder)
chain: LPAPKNLVVSRVTEDSARLSWIPNPSSFDSFLIQYQESEKVGEAIVLTVPGSERSYDLTGLKPGTEYTVSIYGVDVVFDPVGFPSHSNPLSAIFTT
notes: FN3 domain
B10: P283AR9P1362_D7 (designed binder)
chain: LPAPKNLVVSRVTEDSARLSWVKRATSFDSFLIQYQESEKVGEAIVLTVPGSERSYDLTGLKPGTEYTVSIYGVDVKYDIDSRPISSNPLSAIFTT
notes: FN3 domain
B11: P282AR9P1356_H6 (designed binder)
chain: B10 chain with V22R, T26N, D75H, K77E, I80Q, D81H, S82G, I85R, S86W
notes: FN3 domain
B12: P283AR9P1362_A3 (designed binder)
chain: B10 chain with V22K, K23R, R24I, A25D, T26S, S27P
notes: FN3 domain
B13: P283AR9P1362_A4 (designed binder)
chain: B10 chain with V22I, K23G, R24H, A25D, T26S, S27G
notes: FN3 domain
B14: P283AR9P1362_B8 (designed binder)
chain: B10 chain with V22W, K23T, R24S, A25P, T26L, S27P
notes: FN3 domain
B15: P283AR9P1362_C12 (designed binder)
chain: B10 chain with V22A, R24N, A25L, T26H
notes: FN3 domain
B16: P283AR9P1362_D3 (designed binder)
chain: LPAPKNLVVSRVTEDSARLSWPVESNAFDSFLIQYQESEKVGEAIVLTVPGSERSYDLTGLKPGTEYTVSIYGVDVEYDQHGRPRWSNPLSAIFTT
notes: FN3 domain
B17: P283AR9P1362_D4 (designed binder)
chain: B10 chain with K23R, R24E, A25H, T26D
notes: FN3 domain
B18: P283AR9P1362_D6 (designed binder)
chain: B10 chain with V22A, A25P, T26G, S27A
notes: FN3 domain
B19: P283AR9P1362_E9 (designed binder)
chain: B10 chain with K23P, R24S, A25P, T26W, S27G
notes: FN3 domain
B20: P283AR9P1362_F2 (designed binder)
chain: B10 chain with V22R, R24K, A25D, T26H, S27P
notes: FN3 domain
B21: P283AR9P1362_F12 (designed binder)
chain: B10 chain with V22A, K23R, R24N, A25I
notes: FN3 domain
B22: P283AR9P1362_G11 (designed binder)
chain: B10 chain with V22R, R24E
notes: FN3 domain
B23: P282BR9P1357_A9 (designed binder)
chain: LPAPKNLVVSRVTEDSARLSWKANRTTDLHFDSFLIQYQESEKVGEAIVLTVPGSERSYDLTGLKPGTEYTVSIYGVDVQYDGQQPLYSNPLSAIFTT
notes: FN3 domain

molecular target: T1, In house human CD8A-Fc (human, UniProt P01732 22-182, limits assumed); assay: SPR (ProteOn), captured hCD8A-Fc
T1 construct: Captured on goat anti-human Fc on a ProteOn GLC chip; also called hCD8A-Fc; recombinant human CD8 alpha; not shown: linker with flag (and polyhistidine) tag and Fc of human IgG1
Protocol: Purified anti-CD8A FN3 domains were subjected to off-rate analysis using a Proteon surface plasmon resonance instrument in order to pick clones with the slowest off-rates for further characterization.
The immobilized GAH-Fc IgG densities averaged about 6000 Response Units (Ru) with less than 1% variation among different channels. In house human CD8A-Fc was captured in vertical orientation at 3 different ligand densities, 10, 5, 2.5 μg/ml for 5 minutes at 30 ul/minute flowrate. All FN3 domains were normalized to a 3 μM concentration, and tested for binding in horizontal orientation. All 6 analyte channels were used for FN3 domains to maximize the screening throughput. The dissociation phase was monitored for 15 minutes at a flow rate of 100 μl/min using PBST as running buffer. […] Data analyses were performed using Bio-Rad ProteOn Manager software (version 3.1.0.6). Raw data were double referenced by subtraction of the interspot (empty chip surface, no protein immobilized or captured) signals to correct the non-specific binding of the FN3 domain to the pre-coated GAH-Fc IgG surface, followed by a double correction using empty channel L6 where no hCD8A-Fc was captured. The processed binding data were locally fit to a 1:1 simple Langmuir binding model to extract the koff for each FN3 domain binding to captured hCD8A-Fc.

T1 sequence (P01732 22-182 limits assumed): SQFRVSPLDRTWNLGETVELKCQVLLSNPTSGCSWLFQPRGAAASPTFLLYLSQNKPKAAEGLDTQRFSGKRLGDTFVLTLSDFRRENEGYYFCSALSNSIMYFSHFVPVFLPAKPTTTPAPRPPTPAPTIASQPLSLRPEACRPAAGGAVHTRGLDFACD

Row | koff | Binder
1 | 0.000291 s⁻¹ | B1
2 | 9.45e-05 s⁻¹ | B2
3 | 8.61e-05 s⁻¹ | B3
4 | 9.73e-05 s⁻¹ | B4
5 | 0.000186 s⁻¹ | B5
6 | 0.000112 s⁻¹ | B6
7 | 0.000295 s⁻¹ | B7
8 | 0.000158 s⁻¹ | B8
9 | 0.000114 s⁻¹ | B9
10 | 0.000118 s⁻¹ | B10
11 | 8.08e-05 s⁻¹ | B11
12 | 0.00153 s⁻¹ | B12
13 | 0.000302 s⁻¹ | B13
14 | 0.000648 s⁻¹ | B14
15 | 9.94e-05 s⁻¹ | B15
16 | 0.000125 s⁻¹ | B16
17 | 9.72e-05 s⁻¹ | B17
18 | 2.64e-05 s⁻¹ | B18
19 | 0.000327 s⁻¹ | B19
20 | 0.00211 s⁻¹ | B20
21 | 7.28e-05 s⁻¹ | B21
22 | 0.000102 s⁻¹ | B22
23 | 0.00059 s⁻¹ | B23

molecular target: T2, cynomolgus monkey CD8A on primary cynomolgus monkey CD8+ T cells (cynomolgus monkey, UniProt P01732 23-235 (human entry)); assay: flow cytometry, cyno CD8+ T cells, 2 uM FN3
T2 construct: also called Cyno CD8alpha
Protocol: (§1) Binding of the 190 ELISA hits to human and cynomologous monkey primary CD8 T cells was assessed by flow cytometry. The FN3 domain molecules were diluted to 2 μM and 0.2 μM in PBS and incubated with human or cynomologous monkey CD8+ T cells in 96-well format. After 1 hour at 4 C, the cells were washed once with PBS and then resuspended with an anti-FN3 domain antibody (PAB25) solution. Following this incubation, the cells were washed twice with PBS and a PE conjugated secondary antibody and a viability dye were added. Finally, cells were washed and resuspended in PBS for flow cytometric analysis using a BD Canto Instrument. Cells were gating on live cells and median fluorescence intensity of the bound Centyrins (PE channel) was calculated using Cytobank software.

T2 sequence (P01732 other isoform, or with tags, fused parts or gaps limits assumed): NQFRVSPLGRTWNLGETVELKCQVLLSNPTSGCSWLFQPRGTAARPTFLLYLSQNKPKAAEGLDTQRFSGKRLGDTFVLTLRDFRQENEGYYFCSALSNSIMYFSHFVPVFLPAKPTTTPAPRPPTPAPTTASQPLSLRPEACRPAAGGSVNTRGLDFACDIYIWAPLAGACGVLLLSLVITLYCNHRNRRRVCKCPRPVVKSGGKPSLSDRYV

Row | Cyno T-cell Binding 2 uM (MFI) | Binder
24 | 10600 MFI | B1
25 | 35300 MFI | B2
26 | 26400 MFI | B3
27 | 31400 MFI | B4
28 | 19700 MFI | B5
29 | 23700 MFI | B6
30 | 36400 MFI | B7
31 | 13900 MFI | B8
32 | 46300 MFI | B9
33 | 27500 MFI | B10
34 | 14400 MFI | B11
35 | 17300 MFI | B12
36 | 21200 MFI | B13
37 | 12900 MFI | B14
38 | 14800 MFI | B15
39 | 34600 MFI | B16
40 | 25700 MFI | B17
41 | 33500 MFI | B18
42 | 15900 MFI | B19
43 | 26400 MFI | B20
44 | 26300 MFI | B21
45 | 32500 MFI | B22
46 | 7280 MFI | B23

molecular target: T3, human CD8 alpha (CD8A) on primary human CD8+ T cells (human, UniProt P01732 22-235); assay: flow cytometry, human CD8+ T cells, 2 uM FN3
T3 construct: whole, on cells; also called hCD8A
Protocol: as §1

T3 sequence (P01732 22-235): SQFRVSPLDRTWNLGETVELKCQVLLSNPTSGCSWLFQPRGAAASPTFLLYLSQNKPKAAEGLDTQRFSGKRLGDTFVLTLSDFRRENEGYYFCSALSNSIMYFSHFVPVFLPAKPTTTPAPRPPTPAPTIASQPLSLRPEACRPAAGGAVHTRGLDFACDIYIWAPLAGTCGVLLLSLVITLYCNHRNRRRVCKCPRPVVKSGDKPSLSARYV

Row | Human T-cell Binding 2 uM (MFI) | Binder
47 | 4260 MFI | B1
48 | 18500 MFI | B2
49 | 16700 MFI | B3
50 | 10800 MFI | B4
51 | 11000 MFI | B5
52 | 9200 MFI | B6
53 | 17200 MFI | B7
54 | 5960 MFI | B8
55 | 14700 MFI | B9
56 | 17300 MFI | B10
57 | 6650 MFI | B11
58 | 5540 MFI | B12
59 | 6310 MFI | B13
60 | 5740 MFI | B14
61 | 7060 MFI | B15
62 | 9500 MFI | B16
63 | 9830 MFI | B17
64 | 13700 MFI | B18
65 | 6180 MFI | B19
66 | 9620 MFI | B20
67 | 8970 MFI | B21
68 | 12700 MFI | B22
69 | 3120 MFI | B23

molecular target: T2, cynomolgus monkey CD8A on primary …; assay: flow cytometry, cyno CD8+ T cells, 0.2 uM FN3
Protocol: as §1

Row | Cyno T-cell Binding 0.2 uM (MFI) | Binder
70 | 3120 MFI | B1
71 | 9200 MFI | B2
72 | 8630 MFI | B3
73 | 5780 MFI | B4
74 | 5520 MFI | B5
75 | 4570 MFI | B6
76 | 5440 MFI | B7
77 | 3360 MFI | B8
78 | 5700 MFI | B9
79 | 4850 MFI | B10
80 | 3200 MFI | B11
81 | 3530 MFI | B12
82 | 4400 MFI | B13
83 | 2270 MFI | B14
84 | 3830 MFI | B15
85 | 6050 MFI | B16
86 | 4100 MFI | B17
87 | 7720 MFI | B18
88 | 2840 MFI | B19
89 | 5520 MFI | B20
90 | 3790 MFI | B21
91 | 6830 MFI | B22
92 | 1940 MFI | B23

molecular target: T3, human CD8 alpha (CD8A) on primary human …; assay: flow cytometry, human CD8+ T cells, 0.2 uM FN3
Protocol: as §1

Row | Human T-cell Binding 0.2 uM (MFI) | Binder
93 | 2090 MFI | B1
94 | 4310 MFI | B2
95 | 4380 MFI | B3
96 | 3440 MFI | B4
97 | 2790 MFI | B5
98 | 3170 MFI | B6
99 | 3670 MFI | B7
100 | 2400 MFI | B8
101 | 3230 MFI | B9
102 | 3350 MFI | B10
103 | 2640 MFI | B11
104 | 1400 MFI | B12
105 | 2540 MFI | B13
106 | 1580 MFI | B14
107 | 2620 MFI | B15
108 | 3480 MFI | B16
109 | 2980 MFI | B17
110 | 3660 MFI | B18
111 | 2010 MFI | B19
112 | 1370 MFI | B20
113 | 2620 MFI | B21
114 | 3530 MFI | B22
115 | 1070 MFI | B23
